Non-standard residues stand in square brackets, D forms with d. No end group written: not given here. pS = N[C@@H](COP(=O)(O)O)C(=O)O
What was measured:
Conditions in all cases: both partners purified
TSG101 UEV domain = biological target: T1, TSG101 UEV domain (human, UniProt Q99816 2-145); assay: fluorescence polarisation; direct binding (saturation curve): 1:1 dilution series of the protein domain with 5 nM FITC-labelled peptide; room temperature; 50 mM sodium phosphate buffer pH 7.4; fitted to the quadratic equation
T1 sequence (looked up): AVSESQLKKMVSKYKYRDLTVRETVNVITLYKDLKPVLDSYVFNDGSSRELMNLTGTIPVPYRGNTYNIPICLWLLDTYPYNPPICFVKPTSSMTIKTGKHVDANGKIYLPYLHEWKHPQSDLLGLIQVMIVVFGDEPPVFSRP

[1] = biological target: T2, Clathrin N-terminal domain (NTD) (human, UniProt Q00610 1-364); assay: as above
T2 construct: clathrin heavy chain, N-terminal domain; also called Clathrin NTD; CLTC-NTD; source: E. coli BL21-Gold(DE3), purified (GSH or Ni2+ beads), tag removed by protease
T2 sequence: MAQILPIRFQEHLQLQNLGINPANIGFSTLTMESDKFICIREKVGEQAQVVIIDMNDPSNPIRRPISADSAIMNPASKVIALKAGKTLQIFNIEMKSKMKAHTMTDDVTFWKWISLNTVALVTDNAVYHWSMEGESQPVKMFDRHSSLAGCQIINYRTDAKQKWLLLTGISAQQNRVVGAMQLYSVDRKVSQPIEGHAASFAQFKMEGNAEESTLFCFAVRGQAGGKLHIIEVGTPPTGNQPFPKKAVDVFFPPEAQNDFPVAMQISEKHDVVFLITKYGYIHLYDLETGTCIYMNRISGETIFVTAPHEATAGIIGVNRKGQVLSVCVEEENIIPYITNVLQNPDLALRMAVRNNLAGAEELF

[2] = biological target: T3, Clathrin N-terminal domain (NTD) (human, UniProt Q00610 1-364); assay: fluorescence polarisation; displacement: unlabelled peptide diluted 1:1 in series and added to a pre-formed complex of protein domain and FITC-labelled probe peptide (5 nM in the measurement); 50 mM sodium phosphate pH 7.4, room temperature; KD calculated from the displacement curves; technical triplicates
T3 construct: clathrin heavy chain, N-terminal domain; also called Clathrin NTD; CLTC-NTD; source: E. coli BL21-Gold(DE3), purified (GSH or Ni2+ beads), tag removed with protease
T3 sequence: T2 sequence

GGA1 VHS domain = biological target: T4, GGA1 VHS domain (human, UniProt Q9UJY5 17-147); assay: fluorescence polarisation; direct binding (saturation curve): 1:1 dilution series of the protein domain with 5 nM FITC-labelled peptide; room temperature; 50 mM sodium phosphate buffer pH 7.4; fitted to the quadratic equation
T4 construct: GGA1, VHS domain; source: E. coli BL21-Gold(DE3), purified (GSH or Ni2+ beads), tag removed by protease
T4 sequence (looked up): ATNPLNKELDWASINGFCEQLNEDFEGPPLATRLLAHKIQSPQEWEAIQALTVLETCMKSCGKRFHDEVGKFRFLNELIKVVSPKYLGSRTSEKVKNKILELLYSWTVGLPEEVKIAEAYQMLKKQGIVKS

RANBP2 RanBD4 = biological target: T5, RANBP2 RanBD4 (human); assay: as above
T5 construct: the sheet prints 'RanBD1 4'); also called RANBP2 RanBD1 4; RAN2BP RanBD4; source: E. coli BL21-Gold(DE3), purified (GSH or Ni2+ beads), tag removed by protease

GGA1 VHS = biological target: T6, GGA1 VHS (human, UniProt Q9UJY5 17-147); assay: fluorescence polarisation; displacement of a FITC-labelled probe peptide (5 nM in the measurement) from the protein domain (1-2 fold over the probe's KD) by a dilution series of unlabelled peptide; room temperature; 50 mM sodium phosphate pH 7.4; KD calculated from the displacement curve; for KPNA4 ARM one probe for each pocket
T6 construct: GGA1 VHS domain; limits in Dataset EV3; construct limits are in Dataset EV3; also called GGA1 VHS domain; source: E. coli BL21-Gold(DE3), purified, tag removed
T6 sequence (looked up): T4 sequence (looked up)

[3] = biological target: SNX27 PDZ domain, MBP-tagged (human, UniProt Q96L92 43-136); assay: fluorescence polarisation; direct binding (saturation curve): 1:1 dilution series of the protein domain with 5 nM FITC-labelled peptide; room temperature; 50 mM sodium phosphate buffer pH 7.4; fitted to the quadratic equation
AP2 µ2 = biological target: T7, AP2 µ2 (human, UniProt Q96CW1 1-435); assay: as above
T7 construct: AP-2 complex subunit mu (AP2 µ2); also called AP2 μ2; source: E. coli BL21-Gold(DE3), purified (GSH or Ni2+ beads), tag removed by protease
T7 sequence (looked up): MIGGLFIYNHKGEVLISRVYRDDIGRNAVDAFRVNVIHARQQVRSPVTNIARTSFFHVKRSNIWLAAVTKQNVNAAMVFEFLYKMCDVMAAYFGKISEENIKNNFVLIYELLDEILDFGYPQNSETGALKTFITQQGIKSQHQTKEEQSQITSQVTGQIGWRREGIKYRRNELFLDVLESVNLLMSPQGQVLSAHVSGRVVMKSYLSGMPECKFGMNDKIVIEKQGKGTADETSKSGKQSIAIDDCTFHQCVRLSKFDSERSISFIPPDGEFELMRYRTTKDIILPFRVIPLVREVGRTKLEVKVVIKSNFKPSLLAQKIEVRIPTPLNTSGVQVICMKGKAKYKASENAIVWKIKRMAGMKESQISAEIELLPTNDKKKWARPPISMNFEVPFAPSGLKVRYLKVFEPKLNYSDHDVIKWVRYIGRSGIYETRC

FITC-MYC = biological target: T8, FITC-MYC (also: FITC label, position not given here); assay: as above
T8 chain: PAAKRVKLD

FITC-NCOR2 = biological target: T9, FITC-NCOR2 (also: FITC label, position not given here); assay: as above
T9 chain: PKRTYDMMEGRVGRAI

MAP1LC3A ATG8 = biological target: T10, MAP1LC3A ATG8 (human); assay: as above
T10 construct: MAP1LC3A, ATG8 domain; source: E. coli BL21-Gold(DE3), purified (GSH or Ni2+ beads), tag removed by protease

GABARAPL2 ATG8 = biological target: T11, GABARAPL2 ATG8 (human); assay: as above
T11 construct: GABARAPL2, ATG8 domain; source: E. coli BL21-Gold(DE3), purified (GSH or Ni2+ beads), tag removed by protease

MAP1LC3B ATG8 = MAP1LC3B ATG8 (human); assay: as above
14-3-3 Theta = biological target: T12, 14-3-3 Theta (human, UniProt P27348 1-245); assay: as above
T12 sequence (looked up): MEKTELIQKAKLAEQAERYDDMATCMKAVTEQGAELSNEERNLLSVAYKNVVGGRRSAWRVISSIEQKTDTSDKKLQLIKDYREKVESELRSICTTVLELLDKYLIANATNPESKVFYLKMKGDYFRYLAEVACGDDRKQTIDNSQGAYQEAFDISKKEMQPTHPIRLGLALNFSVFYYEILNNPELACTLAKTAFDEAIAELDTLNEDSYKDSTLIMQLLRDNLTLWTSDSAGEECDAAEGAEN

FITC-HIV1_Gag = biological target: T13, FITC-HIV1_Gag (HIV-1 (printed as HIV1), also: FITC label, position not given here); assay: as above
T13 chain: SLYPPLTSLR

With GLIPTAPPAD (also: FITC label, position not given here) [FITC-HIV2_Gag] the Kd (TSG101 UEV domain) was 1900 nM.

In the case of SVDLITFDSV (also: FITC label, position not given here) [FITC-NSP3], the Kd [1] is reported as 26 µM.

B1: GTSE1 692-707 peptide, unphosphorylated (peptide)
peptide: YGQLIDLSSPLIQLSPE
notes: not part of GTSE1; G2 and S phase-expressed protein 1 (GTSE1), human, residues 692-707; also called wild-type GTSE1; source: synthetic peptide (Glbiochem or Genecust)
B1 showed a Kd [2] of 91 µM.

Binder DDSDEDLLHI (also: FITC label, position not given here) [FITC-IGF2R] has a Kd (GGA1 VHS domain) of 31 µM.

KEALATPLPK (also: FITC label, position not given here) [FITC-C7orf25] was tested, and the Kd (RANBP2 RanBD4) was 22 µM.

Work on INLFEKEKEMKKSPTS (also: phosphoserine/threonine, site not given here) [GTSE1_(145–160), phosphorylated (pS)] yielded a Kd (GGA1 VHS) of 640 µM.

B2: GTSE1 692-707 peptide phosphorylated at S699 (peptide)
peptide: YGQLIDLS[pS]PLIQLSPE
notes: not part of GTSE1; G2 and S phase-expressed protein 1 (GTSE1), human, residues 692-707; also called pS699 GTSE1; source: synthetic peptide (Glbiochem or Genecust)
Binder B2 has a Kd [2] of 109 µM.

For GSLEMETAFNSRGFED (also: FITC label, position not given here) [FITC-SYT16], the Kd [3] was 7.5 µM.

Work on FDTEYQRLEAS (also: FITC label, position not given here) [FITC-ATG9A] yielded a Kd (AP2 µ2) of 1510 nM.

B3: KPNA4 ARM domain (domain or fragment)
chain: GDYRVQNTSLEAIVQNASSDNQGIQLSAVQAARKLLSSDRNPPIDDLIKSGILPILVHCLERDDNPSLQFEAAWALTNIASGTSEQTQAVVQSNAVPLFLRLLHSPHQNVCEQAVWALGNIIGDGPQCRDYVISLGVVKPLLSFISPSIPITFLRNVTWVMVNLCRHKDPPPPMETIQEILPALCVLIHHTDVNILVDTVWALSYLTDAGNEQIQMVIDSGIVPHLVPLLSHQEVKVQTAALRAVGNIVTGTDEQTQVVLNCDALSHFPALLTHPKEKINKEAVWFLSNITAGNQQQVQAVIDANLVPMIIHLLDKGDFGTQKEAAWAISNLTISGRKDQVAYLIQQNVIPPFCNLLTVKDAQVVQVVLDGLSNILKMAEDEAETIGNLIEECGGLEKIEQLQNHENEDIYKLAYEIIDQFFSSDDIDEDPSLVPEAIQGGTFGFNSSANVPTEGFQF
Binder B3 has a Kd (FITC-MYC) of 3 nM and a Kd (FITC-NCOR2) of 13 nM.

B4: GTSE1 692-707 peptide phosphorylated at S705 (peptide)
peptide: YGQLIDLSSPLIQL[pS]PE
notes: not part of GTSE1; G2 and S phase-expressed protein 1 (GTSE1), human, residues 692-707; also called pS705 GTSE1; source: synthetic peptide (Glbiochem or Genecust)
B4 showed a Kd [2] of 105 µM.

DDDWTHLSSK (also: FITC label, position not given here) [FITC-SQSTM1] was tested, and the Kd (MAP1LC3A ATG8) was 1360 nM, the Kd (GABARAPL2 ATG8) was 11 µM and the Kd (MAP1LC3B ATG8) was 2500 nM.

For RQRSAP (also: FITC label, position not given here) [FITC-2BTP], the Kd (14-3-3 Theta) was 27.8 µM.

B5: PDCD6IP Alix V domain (domain or fragment)
chain: PVSVQQSLAAYNQRKADLVNRSIAQMREATTLANGVLASLNLPAAIEDVSGDTVPQSILTKSRSVIEQGGIQTVDQLIKELPELLQRNREILDESLRLLDEEEATDNDLRAKFKERWQRTPSNELYKPLRAEGTNFRTVLDKAVQADGQVKECYQSHRDTIVLLCKPEPELNAAIPSANPAKTMQGSEVVNVLKSLLSNLDEVKKEREGLENDLKSVNFDMTSKFLTALAQDGVINEEALSVTELDRVYGGLTTKVQESLKKQEGLLKNIQVSHQEFSKMKQSNNEANLREEVLKNLATAYDNFVELVANLKEGTKFYNELTEILVRFQNKCSDIVFARKTER
B5 was tested, and the Kd (FITC-HIV1_Gag) was 3.6 µM.

B6: GTSE1 692-707 peptide phosphorylated at S698 (peptide)
peptide: YGQLIDL[pS]SPLIQLSPE
notes: not part of GTSE1; G2 and S phase-expressed protein 1 (GTSE1), human, residues 692-707; also called pS698 GTSE1; source: synthetic peptide (Glbiochem or Genecust)
B6 gave a Kd [2] of 123 µM.

Reference: PMC10333884 (Molecular Systems Biology, 2023)
